Laboratory results published in publication doi:10.1101/2024.10.01.616120 (bioRxiv, 2024).

B1: p47 (natural protein)
chain: MAAERQEALREFVAVTGAEEDRARFFLESAGWDLQIALASFYEDGGDEDIVTISQATPSSVSRGTAPSDNRVTSFRDLIHDQDEDEEEEEGQRFYAGGSERSGQQIVGPPRKKSPNELVDDLFKGAKEHGAVAVERVTKSPGETSKPRPFAGGGYRLGAAPEEESAYVAGEKRQHSSQDVHVVLKLWKSGFSLDNGELRSYQDPSNAQFLESIRRGEVPAELRRLAHGGQVNLDMEDHRDEDFVKPKGAFKAFTGEGQKLGSTAPQVLSTSSPAQQAENEAKASSSILIDESEPTTNIQIRLADGGRLVQKFNHSHRISDIRLFIVDARPAMAATSFILMTTFPNKELADESQTLKEANLLNAVIVQRLT
B2: valosin contain protein p97/p47 interacting protein 1 (VCPIP1), wild type (enzyme)
chain: MSQPPPPPPPLPPPPPPPEAPQTPSSLASAAASGGLLKRRDRRILSGSCPDPKCQARLFFPASGSVSIECTECGQRHEQQQLLGVEEVTDPDVVLHNLLRNALLGVTGAPKKNTELVKVMGLSNYHCKLLSPILARYGMDKQTGRAKLLRDMNQGELFDCALLGDRAFLIEPEHVNTVGYGKDRSGSLLYLHDTLEDIKRANKSQECLIPVHVDGDGHCLVHAVSRALVGRELFWHALRENLKQHFQQHLARYQALFHDFIDAAEWEDIINECDPLFVPPEGVPLGLRNIHIFGLANVLHRPIILLDSLSGMRSSGDYSATFLPGLIPAEKCTGKDGHLNKPICIAWSSSGRNHYIPLVGIKGAALPKLPMNLLPKAWGVPQDLIKKYIKLEEDGGCVIGGDRSLQDKYLLRLVAAMEEVFMDKHGIHPSLVADVHQYFYRRTGVIGVQPEEVTAAAKKAVMDNRLHKCLLCGALSELHVPPEWLAPGGKLYNLAKSTHGQLRTDKNYSFPLNNLVCSYDSVKDVLVPDYGMSNLTACNWCHGTSVRKVRGDGSIVYLDGDRTNSRSTGGKCGCGFKHFWDGKEYDNLPEAFPITLEWGGRVVRETVYWFQYESDSSLNSNVYDVAMKLVTKHFPGEFGSEILVQKVVHTILHQTAKKNPDDYTPVNIDGAHAQRVGDVQGQESESQLPTKIILTGQKTKTLHKEELNMSKTERTIQQNITEQASVMQKRKTEKLKQEQKGQPRTVSPSTIRDGPSSAPATPTKAPYSPTTSKEKKIRITTNDGRQSMVTLKSSTTFFELQESIAREFNIPPYLQCIRYGFPPKELMPPQAGMEKEPVPLQHGDRITIEILKSKAEGGQSAAAHSAHTVKQEDIAVTGKLSSKELQEQAEKEMYSLCLLATLMGEDVWSYAKGLPHMFQQGGVFYSIMKKTMGMADGKHCTFPHLPGKTFVYNASEDRLELCVDAAGHFPIGPDVEDLVKEAVSQVRAEATTRSRESSPSHGLLKLGSGGVVKKKSEQLHNVTAFQGKGHSLGTASGNPHLDPRARETSVVRKHNTGTDFSNSSTKTEPSVFTASSSNSELIRIAPGVVTMRDGRQLDPDLVEAQRKKLQEMVSSIQASMDRHLRDQSTEQSPSDLPQRKTEVVSSSAKSGSLQTGLPESFPLTGGTENLNTETTDGCVADALGAAFATRSKAQRGNSVEELEEMDSQDAEMTNTTEPMDHS
modifications: labeled with BODIPY, DOL 0.23, as the labelled partner in the TR-FRET assays; unlabeled as competitor

Molecular target: valosin-containing protein (VCP)/p97 (UniProt P55072 1-806, labeled with Terbium (CoraFluor), DOL 0.33, in the TR-FRET assays)
Experiment: FRET or BRET

valosin-containing protein (VCP)/p97, sequence (P55072 whole entry): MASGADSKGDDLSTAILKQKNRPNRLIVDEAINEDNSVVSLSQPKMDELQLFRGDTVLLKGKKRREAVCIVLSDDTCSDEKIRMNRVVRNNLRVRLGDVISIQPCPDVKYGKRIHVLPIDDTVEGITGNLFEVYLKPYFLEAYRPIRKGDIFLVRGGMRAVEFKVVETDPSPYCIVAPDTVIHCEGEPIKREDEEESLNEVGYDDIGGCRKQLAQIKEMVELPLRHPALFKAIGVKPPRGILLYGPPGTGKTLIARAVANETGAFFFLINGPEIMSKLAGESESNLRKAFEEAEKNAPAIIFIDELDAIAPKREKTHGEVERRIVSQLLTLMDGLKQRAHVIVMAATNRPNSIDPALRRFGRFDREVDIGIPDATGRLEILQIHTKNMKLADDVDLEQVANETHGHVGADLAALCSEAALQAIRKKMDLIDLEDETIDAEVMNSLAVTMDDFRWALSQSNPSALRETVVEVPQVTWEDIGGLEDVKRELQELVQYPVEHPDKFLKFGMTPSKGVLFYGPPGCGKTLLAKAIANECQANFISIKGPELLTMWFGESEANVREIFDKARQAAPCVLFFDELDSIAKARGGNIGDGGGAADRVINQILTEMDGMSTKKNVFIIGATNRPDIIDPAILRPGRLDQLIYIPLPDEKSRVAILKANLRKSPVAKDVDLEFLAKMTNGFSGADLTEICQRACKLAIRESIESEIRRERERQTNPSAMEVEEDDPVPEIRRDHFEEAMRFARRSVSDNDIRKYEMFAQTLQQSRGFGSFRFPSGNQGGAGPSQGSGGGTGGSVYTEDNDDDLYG

Row | Binder | IC50
1 | B1 | 20.4 ± 2.8 nM
2 | B2 | 74.5 ± 13.9 nM
